Reference: article PMC6281582

Target: FOXO3a (UniProt O43524)
Assay: IP of FOXO3a, anti-Flag blot for SirT6
Settings: reference: WT-SirT6; sites S338

SirT6 (from UniProt Q8N6T7) S338A
binding against the reference: lost
